From publication PMC2481429

What follows are sequences tested against U2AF65 (Homo sapiens) (UniProt P26368) (assay: EMSA). Conditions: Gel shift with constant 5'-32P RNA and varying U2AF65, triplicate; buffer, salt, pH and temperature not given (as previously described, ref 49).
U2AF65 (Homo sapiens), sequence (P26368 whole entry, one chain of several): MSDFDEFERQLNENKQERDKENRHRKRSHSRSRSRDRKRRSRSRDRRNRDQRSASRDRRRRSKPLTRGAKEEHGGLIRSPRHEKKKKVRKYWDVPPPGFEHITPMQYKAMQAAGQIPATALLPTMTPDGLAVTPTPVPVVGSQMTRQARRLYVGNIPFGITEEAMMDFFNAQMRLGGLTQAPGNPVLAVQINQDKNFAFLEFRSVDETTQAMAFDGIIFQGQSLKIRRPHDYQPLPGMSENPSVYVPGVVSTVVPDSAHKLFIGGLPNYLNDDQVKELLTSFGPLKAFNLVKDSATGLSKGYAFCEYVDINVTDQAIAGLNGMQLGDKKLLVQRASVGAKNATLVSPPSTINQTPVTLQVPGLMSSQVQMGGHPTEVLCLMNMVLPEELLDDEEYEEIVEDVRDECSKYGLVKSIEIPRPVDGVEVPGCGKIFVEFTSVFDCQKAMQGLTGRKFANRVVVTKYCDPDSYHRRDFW
With “GCCCUGACCCCUUUUUUUUGCUGCAG [LCATmut intron 4 PY tract]” the Kd was 120 nM. “UUCGUGCUGACCCUGUCCCUUUUUUUUCCACAGCUGCA [ADML PY tract]” was tested, and the Kd was 120 nM. Work on “UUCGUGCUGACCCUGUCCCGUAUUAGUCCACAGCUGCA [ADMLmut PY tract]” yielded a Kd of 15800 nM. In the case of “UAAUUCUUUUUUUCUUUCUGCCCUAG [SR140 intron 9 PY tract]”, the Kd is reported as 30 nM. In the case of “GCCCUGACCCCUUCCACCCGCUGCAG [LCAT intron 4 PY tract]”, the Kd is reported as 1900 nM. Work on “UCACCACUCCUUUCUCUUUCAUUCAG [U2AF2 intron 6 PY tract]” yielded a Kd of 80 nM. With “CAAAGGCGUUGGUUUUGUUUCCACAG [INSR intron 10 PY tract]” the Kd was 8800 nM. In the case of “CCGCCCACCCCCUCCCCUCACCGCAG [BRUNOL4 intron 9 PY tract]”, the Kd is reported as 3400 nM.

Same assay, conditions: estimated (asterisk), saturation not reached; Gel shift with constant 5'-32P RNA and varying U2AF65, triplicate; buffer, salt, pH and temperature not given (as previously described, ref 49)
In the case of “CCCUGGCUCACUCCCCUGCCCUGCAG [ITGB4 intron 31 PY tract]”, the Kd is reported as 52000 nM.

Same assay, conditions: estimated (asterisk); no detectable binding at concentrations tested; Gel shift with constant 5'-32P RNA and varying U2AF65, triplicate; buffer, salt, pH and temperature not given (as previously described, ref 49)
Sequence “CAUGUGCUCGCUGCCUGCUAAUUAAG [MBNL1 intron 6 PY tract]” has a Kd of 100000 nM.
